Patent US8865657B2, “Compositions and methods for inactivating or suppressing inflammatory cells” (New York University, priority 2005, dated 2014)

B1: Lactoferrin: lactoferrin (LF; from bovine colostrum), another LRP-1 ligand (protein, UniProt P24627 20-708, looked up)
Lactotransferrin: APRKNVRWCTISQPEWFKCRRWQWRMKKLGAPSITCVRRAFALECIRAIAEKKADAVTLDGGMVFEAGRDPYKLRPVAAEIYGTKESPQTHYYAVAVVKKGSNFQLDQLQGRKSCHTGLGRSAGWIIPMGILRPYLSWTESLEPLQGAVAKFFSASCVPCIDRQAYPNLCQLCKGEGENQCACSSREPYFGYSGAFKCLQDGAGDVAFVKETTVFENLPEKADRDQYELLCLNNSRAPVDAFKECHLAQVPSHAVVARSVDGKEDLIWKLLSKAQEKFGKNKSRSFQLFGSPPGQRDLLFKDSALGFLRIPSKVDSALYLGSRYLTTLKNLRETAEEVKARYTRVVWCAVGPEEQKKCQQWSQQSGQNVTCATASTTDDCIVLVLKGEADALNLDGGYIYTAGKCGLVPVLAENRKSSKHSSLDCVLRPTEGYLAVAVVKKANEGLTWNSLKDKKSCHTAVDRTAGWNIPMGLIVNQTGSCAFDEFFSQSCAPGADPKSRLCALCAGDDQGLDKCVPNSKEKYYGYTGAFRCLAEDVGDVAFVKNDTVWENTNGESTADWAKNLNREDFRLLCLDGTRKPVTEAQSCHLAVAPNHAVVSRSDRAAHVKQVLLHQQALFGKNGKNCPDKFCLFKSETKNLLFNDNTECLAKLGGRPTYEEYLGTEYVTAIANLKKCSTSPLLEACAFLTR
B2: RAP: Recombinant human RAP, universal inhibitor of ligand binding to LRP-1 (protein, UniProt P30533 35-357, looked up)
Alpha-2-macroglobulin …: YSREKNQPKPSPKRESGEEFRMEKLNQLWEKAQRLHLPPVRLAELHADLKIQERDELAWKKLKLDGLDEDGEKEARLIRNLNVILAKYGLDGKKDARQVTSNSLSGTQEDGLDDPRLEKLWHKAKTSGKFSGEELDKLWREFLHHKEKVHEYNVLLETLSRTEEIHENVISPSDLSDIKGSVLHSRHTELKEKLRSINQGLDRLRRVSHQGYSTEAEFEEPRVIDLWDLAQSANLTDKELEAFREELKHFEAKIEKHNHYQKQLEIAHEKLRHAESVGDGERVSRSREKHALLEGRTKELGYTVKKHLQDLSGRISRARHNEL

Tests used:
[1] = test system: HepG2 cells; test: cAMP radioimmunoassay, intracellular cAMP in HepG2 cells; type: cell-based, human
Procedure: (§1) Cell culture. […] HepG2 cells were used on day 3 after plating.
(§2) Cell treatment. […] Role of calcium and cyclic AMP. […] J Immunol 174: 2981-2989). […] IBMX was dissolved in dimethyl sulphoxide (DMSO).
(§3) cAMP radioimmunoassay. For cAMP determination, liver cell cultures were incubated in culture medium without FCS at 37° C. for 0-90 min. The cultures were then placed on ice, and the reaction was stopped by aspiration of the incubation medium followed by the addition of 1 ml of ice cold 65% (vol/vol) ethanol. The cells were scraped into Eppendorf tubes and centrifuged at 10000 g for 10 min at 4° C. The supernatants were dried in SC110 Speedvac Concentrator (Savant, Farmingdale, N.Y.) at room temperature, and the dried extracts were dissolved in assay buffer for cAMP determination with cAMP [^125I] Direct Biotrak Assay from Amersham Biosciences (Piscataway, N.J.), according to the instructions of the manufacturer. Samples were analyzed with a Beckman LS 6000 scintillation counter. The cAMP level in each sample was normalized to the protein concentration and expressed as fmol/μg of protein. Ethanol-precipitated cell pellets were diluted with 0.15 M NaOH and the protein concentration was measured with the Micro BCA Protein Assay Kit (Pierce Chemical Co., Rockford, Ill.) according to manufacturer's instructions.

[2] = test system: Kupffer cells; test: cAMP radioimmunoassay, intracellular cAMP in Kupffer cells; type: cell-based, rat; details: for effect on cAMP level, agent alone: RAP 500 nM alone, lactoferrin 100 nM
Procedure: (§4) Liver cell isolation. […] The nonparenchymal cell-containing supernatant was saved.
as §1, §2, §3

[3] = test system: Hepatocytes; test: cAMP radioimmunoassay, intracellular cAMP in hepatocytes; type: cell-based, rat
Procedure: as §4, §1, §2, §3

[4] = test system: Liver endothelial cells; test: cAMP radioimmunoassay, intracellular cAMP in liver endothelial cells; type: cell-based, rat
Procedure: as §4, §1, §2, §3

[5] = test system: Kupffer cells; test: Inositol-1,4,5-trisphosphate (IP3) assay in Kupffer cells; type: cell-based, rat; details: data not shown
Procedure: as §4, §1
Inositol-1,4,5-trisphosphate (IP3) assay. Intracellular IP3 levels were measured with a IP3 [^3H] Biotrak Assay (Amersham Biosciences, Piscataway, N.J.). Liver cells (3.0×10^6 per well) were incubated for 0, 30, 60, 120 sec with 100 nM CSP in RPMI-1640 containing 10 mM LiCI. The plates were then placed on ice, and the reaction was stopped by aspiration of the incubation medium followed by the addition of 20% ice-cold perchloric acid. After incubation on ice for 20 min, the cells were scraped into Eppendorf tubes. The precipitated protein was removed by centrifugation at 10000 g for 15 min at 4° C. The supernatant was neutralized to pH 7.5 by titrating with ice-cold 1.5 M KOH containing 60 mM HEPES buffer. The precipitated KClO4 was removed by centrifugation at 5000 g for 15 min at 4° C. Radioactivity in the supernatant was measured with a Beckman LS 6000 scintillation counter.

Molecule	cAMP ([1]; HepG2 cells, 100 nM lactoferrin, 30 min at 37° C., mean±S.E.)	effect on cAMP concentration ([1]; human hepatoma cell line HepG2)	cAMP ([2]; Kupffer cells, 100 nM lactoferrin, 30 min at 37° C., serum-free RPMI-1640, mean±S.E.)	effect on cAMP level, agent alone ([2]; Kupffer cells)	cAMP ([3]; Hepatocytes, 100 nM lactoferrin, 30 min at 37° C., mean±S.E.)	effect on cAMP concentration ([3]; hepatocytes)	cAMP ([4]; Liver endothelial cells, 100 nM lactoferrin, 30 min at 37° C., mean±S.E.)	effect on cAMP concentration ([4]; endothelial cells)	effect on the CSP-induced generation of cAMP ([2]; added 10 min before 50 nM CSP (30 min), RAP 500 nM)	effect on IP3, agent alone ([5]; RAP alone)	effect on the CSP-induced IP3 increase ([5]; preincubation 10 min with 500 nM RAP before CSP)
B1	6.50 ± 0.07 fmol/μg protein	no significant effect	14.10 ± 2.10 fmol/μg protein	no significant effect	2.61 ± 0.09 fmol/μg protein	no significant effect	5.58 ± 0.30 fmol/μg protein	no significant effect	–	–	–
B2	–	–	–	had no effect	–	–	–	–	blocked	had no effect	prevented this increase
